# Assay results: patent EP4674869A1 (Immuneoncia Therapeutics, Inc., dated 2026)
# Experiments:
# [1] = target: T1, CD47 (UniProt Q08722 19-323, limits assumed); assay: binding to Raji cancer cells; method not stated
# T1 construct: whole, on cells; also called CD47 on cancer cells (MDA-MB-231, Raji)
# [2] = target: T1, CD47; assay: binding to MDA-MB-231 cancer cells; method not stated
# T1 sequence (Q08722 19-323 limits assumed): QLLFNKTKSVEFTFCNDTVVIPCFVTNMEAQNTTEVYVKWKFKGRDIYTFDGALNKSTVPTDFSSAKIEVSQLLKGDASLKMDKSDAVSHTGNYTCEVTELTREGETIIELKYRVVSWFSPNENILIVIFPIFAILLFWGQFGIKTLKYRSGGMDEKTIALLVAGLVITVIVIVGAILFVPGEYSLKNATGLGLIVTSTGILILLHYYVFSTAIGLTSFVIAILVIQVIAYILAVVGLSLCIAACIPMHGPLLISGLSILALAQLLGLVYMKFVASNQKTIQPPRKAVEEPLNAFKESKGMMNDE
binder,measurement,setting,value
"IMC-002 (antibody, human IgG4 S228P, lambda, V domains shown, Fully human IgG4 kappa antibody with an S228P hinge mutation; also called anti-CD47 antibody; C47B10-H3-D4) VH: QVQLVQSGAEVKKPGASVKVSCKASGYTFTSYYMHWVRQAPGQGLEWMGIINPSGGSTSYAQKFQGRVTMTRDTSTSTVYMELSSLRSEDTAVYYCARSTLWVSEFDYWGQGTLVTVSS VL: QSALTQPASVSGSPGQSISISCTGTSSDVGGHNYVSWYQQHPGKAPKLMIYDVRNRPSGVSNRFSGSKSGSTASLTISGLQTEDEADYYCNSYTGSRTYVFGSGTKLTVLG",EC50,[1],4.77 µg/mL
same,EC50,[2],5.73 µg/mL
